Kd data for 12 molecules are collected here from US20240343789A1 (published 2024).

One may read the Kd as the equilibrium constant for the complex coming apart. Low readings indicate a tighter complex, high ones a looser complex.

Substitutions are numbered along the chain they refer to. Read-outs that look alike come from different tables or passages of the source.

Assay in all cases: ECL ELISA titration
The target of experiment [1] is T1, IGFR-L1 protein (Endosome/lysosome-associated apoptosis and autophagy regulator 1, ELAPOR1) (UniProt Q6UXG2 42-1013).
T1 chain: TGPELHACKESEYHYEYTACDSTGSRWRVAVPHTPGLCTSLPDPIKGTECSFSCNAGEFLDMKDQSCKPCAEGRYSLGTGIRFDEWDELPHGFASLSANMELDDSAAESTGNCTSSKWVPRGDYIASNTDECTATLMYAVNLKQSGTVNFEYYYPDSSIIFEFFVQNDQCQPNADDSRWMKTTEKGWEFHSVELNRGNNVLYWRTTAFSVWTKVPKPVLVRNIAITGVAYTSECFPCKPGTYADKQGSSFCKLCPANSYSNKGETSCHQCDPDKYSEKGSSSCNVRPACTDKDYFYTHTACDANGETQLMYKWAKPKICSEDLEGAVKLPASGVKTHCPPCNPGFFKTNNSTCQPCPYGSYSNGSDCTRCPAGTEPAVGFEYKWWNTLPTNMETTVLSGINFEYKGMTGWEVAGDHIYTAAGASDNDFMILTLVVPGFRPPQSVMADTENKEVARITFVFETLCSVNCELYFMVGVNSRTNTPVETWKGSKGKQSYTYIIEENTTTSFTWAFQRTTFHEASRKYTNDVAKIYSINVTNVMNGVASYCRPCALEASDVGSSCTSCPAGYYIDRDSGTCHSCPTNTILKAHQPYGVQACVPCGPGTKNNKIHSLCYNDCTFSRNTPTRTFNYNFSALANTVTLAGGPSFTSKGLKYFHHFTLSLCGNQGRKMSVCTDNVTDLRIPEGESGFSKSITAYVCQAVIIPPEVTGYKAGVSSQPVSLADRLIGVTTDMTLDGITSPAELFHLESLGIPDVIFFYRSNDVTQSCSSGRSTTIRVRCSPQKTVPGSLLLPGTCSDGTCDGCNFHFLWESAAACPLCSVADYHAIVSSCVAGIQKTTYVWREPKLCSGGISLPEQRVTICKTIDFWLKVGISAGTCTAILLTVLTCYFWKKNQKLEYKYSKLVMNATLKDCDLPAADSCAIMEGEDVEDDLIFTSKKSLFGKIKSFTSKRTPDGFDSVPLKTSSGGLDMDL

Experiment [2] has as its target T1, IGFR-L1 protein ….
For experiment [3], the target named is T1, IGFR-L1 protein ….
The target of experiment [4] is T1, IGFR-L1 protein ….
The target of experiment [5] is T1, IGFR-L1 protein ….
Experiment [6] concerns the target T1, IGFR-L1 protein ….

B1: AB-6 (antibody, V domains shown)
VH: EVQLVESDGGLVQPGRSLKLSCAASGFSFSDYYMAWLRQAPTKGLEWVATISHDGTGTYFRDSVKGRFTISRDNVKSTLYLQLDSLRSEDTATYYCARHKDGGYKDYWGQGVMVTVSS
VL: DIKMTQSPSPLSASLGERVTISCRASDNIDNYLSWYQKKEDGSVRLLIYHTSRLQPGAPSRFSGSGSGKDYSLTISGLESEDIATYYCQQTYTPYTFGAGTKLELRR
Molecule B1 had a Kd in experiment [1] of 5.27 nM.

B2: AB-3 (antibody, V domains shown)
VH: EVQLLESGGGLVQPGGSLSLSCAASGFTFTDFYMNWIRQPAGKAPEWLAFARNKANGYTTDYNPSVKGRFAISRDNTQNMFYLHMNTLRPEDTATYYCARGRPSDYWGQGVMVTVSS
VL: DIVMTQSPSSLAVSTGETVTMDCKSSQNLFYSGNQRNYLAWYQQKPGQSPTLLIYWASTRRSGVPDRFIGSGSGTDFTLTISSVQAEDLALYYCQQYDDPPYTFGAGTKLELKR
For the molecule B2, the Kd in experiment [2] came to 2.75 nM.

B3: AB-10 (antibody, V domains shown)
VH: GVQLVESGGGLVQSGRSIKVSCEASGFTFSNFYMAWVRQAPTKGLEWVASISSGGGNTHYRDSVRGRFTISRNNAKSTLYLQMDSLNSEDTATYYCARDPGGGSPYWYLDFWGPGTMVTVSS
VL: DIVLTQSPALAVSLGQRATISCRANQNVDFYDNTYLHWYQQKPGQQPKLLIYLASNLASGIPARFSGGGSGTDFTLTIDPVEADDTATYYCQQSRNLPNTFGAGTKLELKR
Turning to B3, binding in experiment [3] was put at a Kd of 1.01 nM.

B4: AB-8 (antibody, V domains shown)
VH: QVQLQQSGAELAKPGSSVKISCKASGYTFTSYFISWIKQTTGQDLEYIGYINTGSGGTNYNEKFKGKATLTVDRSSSTAFMQLSSLTPDDSAVYYCARELRRVRGWFAYWGQGTLVTVSS
VL: DTQMTQSPASLFASLGETVTIQCQASEDISSGLAWYQQKPGKSPHLLIYGANSLQDGVPSRFSGSGSGTQYSLKITNMQADDEGVYFCQQGLKYPFTFGSGTKLEIKR
The molecule B4 returned a dissociation constant Kd in experiment [4] of 2.74 nM. This lies in the single-digit nanomolar range.

B5: AB-2 (antibody, V domains shown)
VH: EVQLVESDGGFVQPGRSLTLSCAASGFTFSDYYMSWVRQAPTKGLEWVATIGYDVSYTNYRDSVKGRFTISRDNAKSILSLQMDSLRSEDTATYYCARHPSYFDYWGQGVMVTVSS
VL: DIVMTQSPSSLAVSAGETVTINCKSSQSLFYSENQKNYLAWLQQKPGQSPKLLITWASTRQSGVPDRFIGSGSGTDFTLTISSVQAEDLAIYHCQQYYDTPRTFGGGTQLELKR
In the case of B5, the Kd in experiment [5] was 2.22 nM.

B6: AB-11 (antibody, V domains shown)
VH: B5 VH with T19K, V55G, S56T, K76R, S80Y, Y105H
VL: B5 VL with F30L, L42F, K45R, T55N, I91T, T108S, Q109K
B6 showed a Kd in experiment [6] of 2.81 nM.

B7: AB-7 (antibody, V domains shown)
VH: QVKLLQSGAALVKPGDSVKMSCKASGYSFTDYSIHWVKQSHGKSLEWIGYINPYSGGTTYNEKFKRKATLTVDKSSSTAYMEFSRLTSEDSAIYYCAREGMGITLYVMDAWGQGASVTVSS
VL: DIVLTQSPALAVSLGQRATVSCKASQTVTISRYHLLHWYQQKPGQQPTLLIYRASNLASGIPARFSGSGSGTDFTLTINPVQADDLASYYCQQSWGSPWTFGGGTKLELKR
Turning to B7, the Kd in experiment [4] came to 1.44 nM.

B8: AB-5 (antibody, V domains shown)
VH: EVQLVESGGGLVQPGRSLKLSCAAPGFTFSASDMAWVRQAPTKGLEWVASISPSGDSTYYRDSILGRFTVSRDNAKSSLYLQMDSLRSEDTATYYCARHLGLGPFDHWGQGVMVTVSS
VL: DIQMTQSPSLLSASVGDRVTLSCKAGRDINNYLAWYQQKLGEAPKLLIYNANFLQTGIPSRFSGSGSGTDYTLTISSLQPEDVATYFCQQFNTWTGTFGGGTKLELKR
For the molecule B8, binding in experiment [1] was put at a Kd of 4.78 nM. This counts as single-digit nanomolar.

B9: AB-4 (antibody, V domains shown)
VH: EVQLVESGGGFVRPGKSLKLSCSASGFTFNTYGMHWIRQAPGKGLDWVSYISSSSATAYADAVKGRFTISRDNAKNTLYLQLNSLRSEDTAIYHCAREATYYGYPRYYFDYWGQGVMVTVSS
VL: DIQMTQSPSSMSVSLGDRVTFTCRASQDIGNYLSWYQQKPEKSPRLMIYTATDLEDGVPSRFSGSRSGSDYSLTINSLESEDRGIYFCLQHKQYPYTFGSGTKLELKR
B9: the affinity in experiment [2], expressed as Kd, was 2.76 nM. This lies in the single-digit nanomolar range.

B10: AB-12 (antibody, V domains shown)
VH: EVKLLESGGGLVQPGGSMRLSCAASGFTFTDFYMNWIRQPAGKAPEWLGFIRNKANGYTTEYTPSVKGRFTISRDDTQNMLYLQMNTLRAEDTATYYCARHYYDGSYYYWYFDFWGPGTMVTVSS
VL: DVVLTQTPVAQPVTLGDQVSISCRSSQSLVKSNGNTYLEWFLQKPGQSPQLLIYKVSNRFSGVPDRFIGSGSGSDFTLKISRVEPEDLGVYYCFQAAHDPRTFGGGTKLELKR
In experiment [6], B10 returned a Kd of 2.79 nM.

B11: AB-1 (antibody, V domains shown)
VH: EIQLQESGPGLVKPSQSLSLTCSVTDYTITSGFGWSWIRKFPGNKLEWMGYISYSGSTNYNPSLKSRLSLTRDTTKNQFFLQLISVTPEDTATYYCARSPLYGSNRYVVDAWGQGASVTVSS
VL: DVQMTQSPSILTASPGESVSINCKASKSISNYLAWYQQKPGKSINLLIYSGSTLQSGTPSRFSGSGSGTDFTLTIRNLDPEDFGRYYCQQHNENPYTFGPGTRLELKR
In the case of B11, the affinity in experiment [5], expressed as Kd, was 2.8 nM. In other words, the single-digit nanomolar range.

B12: AB-9 (antibody, V domains shown)
VH: EVQLVESGGGLVQPTGSVKLSCAASGFIFTNYGMAWVRQAPKKGLEWVAYISYDGGSTYFRDSVRGRFTISRDNAKSTLYLHMDSLRSEDTATYYCTTPRLDTWGQGVMVTVSS
VL: DIQMTQSPSSLSASLGDRVTITCRPSQDIGNHLSWFQQKPGKSPRLMTYGATILEDGVPSRFSGSRSRSDYSLTISSLESEDTAIYYCLQYDKYPRTFGGGTKVELKR
In turn, B12 came in with a Kd in experiment [3] of 2.95 nM.
